In patent US20240228645A1:
Values belong to the substance of their own block, whether it stands above or below them.

Columns and labels:
[1] = target: hBAFF-R-hFc-His fusion protein (human) (UniProt Q96RJ3); test: yeast surface display flow cytometry; hBAFF-R-hFc-His (concentration not given)
[2] = target: hBAFF-R-hFc-His fusion protein (human) (UniProt Q96RJ3); test: yeast surface display flow cytometry, after challenge: 100 pM hBAFFR-Fc biotin for 1 hr at RT, then 1 mM (so in the source); paragraph 270 says 1 uM) nonbiotinylated hBAFFR-Fc, t = 120 min; other quadrants Q1 64.5, Q3 0.050, Q4 21.0
[3] = target: hBAFF-R-hFc-His fusion protein (human) (UniProt Q96RJ3); test: yeast surface display flow cytometry; hBAFF-R-hFc-His (concentration not given); other quadrants Q1 0.17, Q3 10.5, Q4 22.3
[4] = target: hBAFF-R-hFc-His fusion protein (human) (UniProt Q96RJ3); test: yeast surface display flow cytometry; hBAFF-R-hFc-His (concentration not given); other quadrants Q1 0.34, Q3 5.47, Q4 34.4
[5] = target: hBAFF-R-hFc-His fusion protein (human) (UniProt Q96RJ3); test: yeast surface display flow cytometry, before challenge: 100 pM hBAFFR-Fc biotin for 1 hr at RT; other quadrants Q1 44.1, Q3 9.77E-3, Q4 14.6
[6] = target: hBAFF-R-hFc-His fusion protein (human) (UniProt Q96RJ3); test: yeast surface display flow cytometry; hBAFF-R-hFc-His (concentration not given); other quadrants Q1 0.35, Q3 13.0, Q4 28.5
[7] = target: hBAFF-R-hFc-His fusion protein (human) (UniProt Q96RJ3); test: yeast surface display flow cytometry, after challenge: 100 pM hBAFFR-Fc biotin, then 1 mM (so in the source); paragraph 270 says 1 uM) nonbiotinylated hBAFFR-Fc, t = 120 min
PSR [8] = test: PSR assay: antibody on Protein A coated beads, biotinylated PSR, SA-PE, flow cytometry; +PSR panel, other quadrants Q1 72.8, Q3 7.72E-3, Q4 0.29; without PSR Q2 0
PSR [9] = test: PSR assay: antibody on Protein A coated beads, biotinylated PSR, SA-PE, flow cytometry; +PSR panel, other quadrants Q1 98.8, Q3 0, Q4 0.048
[10] = target: human BAFF-R expressed on cells (hBAFF-R-CHO isogenic CHO cells; BAFF-R+ cancer cells) (human) (UniProt Q96RJ3); test: cell-based blocking assay; MFI of BAFF-biotin bound to CHO cells expressing human BAFF-R in the presence of the control antibody

- Gated lane, percent of events in the drawn gate [1]: 0.3
- Gated, percent of events in the drawn gate [1]: 0.72
- Q2, percent of events positive for scFv expression and for antigen binding, after challenge [2]: 14.4
- Q2, percent of events positive for scFv expression and for antigen binding [3]: 67
- Q2, percent of events positive for scFv expression and for antigen binding [4]: 59.5
- Q2, percent of events positive for scFv expression and for antigen binding, before challenge [5]: 41.3
- Q2, percent of events positive for scFv expression and for antigen binding [6]: 58.2
- Iana (drawn gate), percent of events, after challenge [7]: 0.13
Substance: ianalumab-based scFv benchmark control displayed on yeast

- Q2, percent of beads positive for FITC and for PSR binding (PE), +PSR (PSR [8]): 27.1
Substance: Ixekuzumab (antibody)

- Q2, percent of beads positive for FITC and for PSR binding (PE), +PSR (PSR [9]): 1.18
Substance: Trastuzumab (antibody)

- Minimum (MFI) [10]: 68000 MFI
Substance: Human IgG1k (antibody)
